From the Human Domainome abundance scans (Beltran et al. 2025) come the findings set out here.

± gives the uncertainty stated by the source.

B1: POU domain, class 4, transcription factor 2, residues 256 to 327; numbered along this chain, Q12837 (parent)
chain: RDLEAFAERFKQRRIKLGVTQADVGSALANLKIPGVGSLSQSTICRFESLTLSHNNMIALKPILQAWLEEAE

The variants in the series derive from B1. Put plainly: abundance fitness (aPCA) (normalised: wild type 0, dead -1); higher = more abundant; growth selection in yeast, the domain comes from the species named. As to conditions: Homo sapiens.
Take RDLEAFAEFFKQRRIKLGVTQADVGSALANLKIPGVGSLSQSTICRFESLTLSHNNMIALKPILQAWLEEAE: the abundance fitness was -0.335 ± 0.19.

In the case of RDLEAFAEAFKQRRIKLGVTQADVGSALANLKIPGVGSLSQSTICRFESLTLSHNNMIALKPILQAWLEEAE, the abundance fitness was -0.07 ± 0.062.

For the variant RDLEAFAEHFKQRRIKLGVTQADVGSALANLKIPGVGSLSQSTICRFESLTLSHNNMIALKPILQAWLEEAE, the abundance fitness is 0.15 ± 0.077.

RDLEAFAERFKQRRIKLGVTQADVGSALANLKIPGVGSLSQSTICRFESLTLSHNNMIALKNILQAWLEEAE: the abundance fitness was -0.44 ± 0.26.

For the variant RDLEAFAERFKQRRIKLGVTQADVGSALANLKIPGVGSLSQSTICRFESLTLSHNNMIALKMILQAWLEEAE, the abundance fitness is -0.811 ± 0.29.

In the case of RDLEAFAERFKQRRIKLGVTQADVGSALANLKIPGVGSLSQSTICRFESLTLSHNNMIALKHILQAWLEEAE, the abundance fitness was -0.23 ± 0.2.

As to RDLEAFAERFKQRRIKLGVTQADVGSALANLKIPGVGSLSQSTICRFESLTLSHNNMIALKPILQMWLEEAE, the abundance fitness was -0.246 ± 0.098.

RDLEAFAERFKQRAIKLGVTQADVGSALANLKIPGVGSLSQSTICRFESLTLSHNNMIALKPILQAWLEEAE: the abundance fitness was -0.906 ± 0.42.

Take RDLEAFAERFKQRRIKLGVTQADVGSALANLKIKGVGSLSQSTICRFESLTLSHNNMIALKPILQAWLEEAE: the abundance fitness was -0.008 ± 0.088.

For RDLECFAERFKQRRIKLGVTQADVGSALANLKIPGVGSLSQSTICRFESLTLSHNNMIALKPILQAWLEEAE, the abundance fitness was -0.311 ± 0.24.

Regarding RDLEAFAERFKQRRIKLGVTQADVGSALANLKIPGVGSLSQSTICRFESLTLSHNNMIALKPLLQAWLEEAE, the abundance fitness is -0.217 ± 0.057.

On to RDLEAFAERFKQRRIKLGVTQADVGSALANLKIPGVGSLSQSTICRFESLKLSHNNMIALKPILQAWLEEAE, for which the abundance fitness is 0.264 ± 0.16.

As to RDLEAFAERFKQRRIKLGVTQADVGSALANLKIPGVGSLSQSTICRFESLCLSHNNMIALKPILQAWLEEAE, the abundance fitness was -0.077 ± 0.11.

Take RDLEAFAERFKQRRIKLGVTQADVGSAEANLKIPGVGSLSQSTICRFESLTLSHNNMIALKPILQAWLEEAE: the abundance fitness is -0.657 ± 0.17.

With RDLEAFAERFKQRRIKLGVTQADVGSAPANLKIPGVGSLSQSTICRFESLTLSHNNMIALKPILQAWLEEAE, the abundance fitness was -0.935 ± 0.14.

With RDLEAFAERFKQRRIKLGVTQADVGSALANLKIPGVGSLSQSTICRFESLTLSHNNMIALKPILAAWLEEAE, the abundance fitness was -0.084 ± 0.052.

Take RDLEAFAERFKQRRIKLGVTQADVGSALANLKIPGVGSLSQSTICRFESLTLSHNNMIALKPILIAWLEEAE: the abundance fitness was -0.502 ± 0.2.

As to RDLEAFAERFKQRRIKLGVTQADVGSALANLKIPGMGSLSQSTICRFESLTLSHNNMIALKPILQAWLEEAE, the abundance fitness was -0.203 ± 0.11.

In the case of RDLEAFAERFKQRRIKLGVTQADVGSALANLKIPGVGSLSQSTICRFESLTLSHNNMIALKPILQAWLERAE, the abundance fitness is -0.075 ± 0.053.

As to RDLEAFAERFKQRRIKLGVTQADVGSALANLKIPGVGSLSQSTICRFESLTLSHNNMIALKPILQAWLESAE, the abundance fitness is -0.11 ± 0.063.

As for RDLEAFAERFKQRRIKLGVTQADVGSALANLKIPGVGSLSQSTICRFESLTPSHNNMIALKPILQAWLEEAE, the abundance fitness is -0.887 ± 0.12.

In the case of RDLEAFAERFKQRRIKLGVTVADVGSALANLKIPGVGSLSQSTICRFESLTLSHNNMIALKPILQAWLEEAE, the abundance fitness was 0.002 ± 0.07.

With RDLEAFAERFKQRRIKLGVTQADVGSALANLKIPGVGSLSQSTICRFESRTLSHNNMIALKPILQAWLEEAE, the abundance fitness was -0.077 ± 0.055.

As for RDLEAFAERFKQRRIKLGVTQADVGSALANLKIPGVGSLSQSTICRFESHTLSHNNMIALKPILQAWLEEAE, the abundance fitness is -0.057 ± 0.081.

On to RDLEAFAERFKQRRIKLGVTQADVGSALANLKIPGVGSLSQSTICRFESLTLSHNNMIALKPILQAWLEEAD, for which the abundance fitness is -0.425 ± 0.28.

For RDLEAFAERFKQRRIKLGVTQADVGSALANLKIPGVGSLYQSTICRFESLTLSHNNMIALKPILQAWLEEAE, the abundance fitness was -0.685 ± 0.2.

Turning to RDLEAFAERFKQRRIKLGVTQADVGSALANLKIPGVGSLHQSTICRFESLTLSHNNMIALKPILQAWLEEAE, the abundance fitness is -0.228 ± 0.09.

On to RDLEAFAERFKQRRIKLGVTQADVGSALANLKIPGVGSLSQSTICRFESLTLSHNNMIILKPILQAWLEEAE, for which the abundance fitness is 0.027 ± 0.14.

In the case of RDLEAFAERFKQRRIKLGVTQADVGSALANLKIPGVGSLSQSTICRFESLTLSHNNMIYLKPILQAWLEEAE, the abundance fitness was -0.026 ± 0.095.

Regarding RDLEAFAERFKQRRIKLGVTQADVGSALANLKIPGVGSLSQSTICRFESLTLSHNNMITLKPILQAWLEEAE, the abundance fitness is -0.038 ± 0.075.

RDLEAFAERFKQRRIKLGVTQADVGSALANLKIPGVGSLSQSTICRFESLTLSHNNMIAWKPILQAWLEEAE: the abundance fitness was -0.729 ± 0.14.

In the case of RDLEAFAERFKQRRIKLGVTQADVGSALANLKIPGVGSLSQSTICRFESLTLSHNNMIAQKPILQAWLEEAE, the abundance fitness was -0.843 ± 0.16.

Consider RDLEAFAERFKQRRIKLGVTQADVGSALANLKIPGVGSLSQSTICRRESLTLSHNNMIALKPILQAWLEEAE, for which the abundance fitness was -0.864 ± 0.094.

On to RDLEAFAERFKQRRIKLGVTQADVGSALANLKIPGVGSLSQSTICRYESLTLSHNNMIALKPILQAWLEEAE, for which the abundance fitness is -0.53 ± 0.15.

In the case of RDLEAFAERFKQRRIKLGVTQADVGSALQNLKIPGVGSLSQSTICRFESLTLSHNNMIALKPILQAWLEEAE, the abundance fitness was 0.108 ± 0.078.

Regarding RDLEAFAERFKQRRIKLGVTQADVGSALHNLKIPGVGSLSQSTICRFESLTLSHNNMIALKPILQAWLEEAE, the abundance fitness was -0.198 ± 0.1.

Regarding RDLEAFAERFKQRRIKLGVTQADVGSALTNLKIPGVGSLSQSTICRFESLTLSHNNMIALKPILQAWLEEAE, the abundance fitness is -0.107 ± 0.072.

For RDLEAFAERFKQRRIKLGVTQACVGSALANLKIPGVGSLSQSTICRFESLTLSHNNMIALKPILQAWLEEAE, the abundance fitness was -0.678 ± 0.16.
